# Where two headings read alike, the source gives them in different places.
# Assays:
# [1] = molecular target: membrane human TNFα (non-cleavable TNFα construct stably transfected into CHO cells) (human, UniProt P01375 1-233); assay: cell-based or functional assay
# [2] = molecular target: T1, human TNFα (recombinant, soluble) (human, UniProt P01375 77-233); assay: cell-based or functional assay
# [3] = molecular target: TNFα expressed on human monocyte-derived dendritic cells (human, UniProt P01375 1-233); assay: cell-based or functional assay
# rhesus macaque TNFα = molecular target: T2, rhesus macaque TNFα (rhesus macaque, UniProt P48094 77-233); assay: antigen-down ELISA, plate coated with rhesus macaque TNFα
# T2 construct: Bought protein; also called rhesus macaque monkey TNFα (R&D Systems, Cat# 1070-RM)
# Description: (§1) Example 2a. […] Briefly, 384-well high binding plates (Greiner Bio-one #781061) were coated with 20 μL per well of 1 μg/mL of human TNFα (Syngene), 2 μg/mL of rhesus macaque TNFα (R&D Systems, Cat# 1070-RM), or 2 μg/mL of canine TNFα (R&D Systems, Cat# 1507-CT/CF) diluted in carbonate buffer pH 9.3 (0.015 M Na₂CO₃ and 0.035 M NaHCO₃) and stored at 4° C. overnight. […] The plates were incubated at 37° C. for 90 min, then washed three times in PBS/0.1% Tween. 20 μL of secondary antibody reagent goat-anti-human-kappa-AP (Southern Biotech, Cat# 2060-04) with 1:1500 dilution was added to the plate and incubated for 45 minutes at 37° C. Plates were washed 3 times as above, and 20 μL of alkaline phosphatase substrate solution diluted to 1:35 in molecular grade water was added to every well. Once the color developed (approximately 15-30 min), plates were read at 560 nm OD on a Molecular Device Spectramax plate reader and data was acquired using Softmax Pro 4.7 software. Data analysis was performed in GraphPad Prism.
# canine TNFα = molecular target: T3, canine TNFα (canine, UniProt P51742 77-233); assay: antigen-down ELISA, plate coated with canine TNFα
# T3 construct: Bought protein; also called Canine TNFα (R&D Systems, Cat# 1507-CT/CF)
# Description: as §1
# [4] = molecular target: T1, human TNFα (recombinant, soluble); assay: antigen-down ELISA, plate coated with human TNFα
# Description: as §1
# [5] = molecular target: T1, human TNFα (recombinant, soluble); assay: cell-based or functional assay; remark: listed apart in the source
# [6] = molecular target: T1, human TNFα (recombinant, soluble); assay: antigen-down ELISA, plate coated with human TNFα; remark: listed apart in the source
# Description: as §1
# T2 sequence (P48094 77-233 limits assumed): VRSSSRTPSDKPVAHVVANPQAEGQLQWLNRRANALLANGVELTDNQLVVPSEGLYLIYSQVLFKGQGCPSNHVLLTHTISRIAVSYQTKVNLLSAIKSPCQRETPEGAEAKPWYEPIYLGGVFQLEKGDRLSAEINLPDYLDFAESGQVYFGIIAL
# T3 sequence (P51742 77-233 limits assumed): as the sequence (P48094 77-233 limits assumed) above, with R2K, Q21E, N30S, V49I, E53D, N72T, I83F, A109T, D140N counted along it
# T1 sequence (P01375 77-233 limits assumed): as the sequence (P48094 77-233 limits assumed) above, with T44R, N72T, L138R counted along it
# Sequence of TNFα expressed on human monocyte-derived dendritic cells (P01375 whole entry): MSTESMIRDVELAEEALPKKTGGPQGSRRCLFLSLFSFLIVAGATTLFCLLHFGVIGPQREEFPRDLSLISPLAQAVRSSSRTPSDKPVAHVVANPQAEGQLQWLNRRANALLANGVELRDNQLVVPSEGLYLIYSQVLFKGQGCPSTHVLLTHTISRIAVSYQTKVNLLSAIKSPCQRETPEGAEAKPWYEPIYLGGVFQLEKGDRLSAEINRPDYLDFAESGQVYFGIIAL
Binder,Inhibition of membrane human TNFα-induced apoptosis IC50 (L929 cells) [1],Inhibition of soluble human TNFα induced apoptosis IC50 (L929 cells) [2],Immature Dendritic Cell Internalization Index [3],Mature Dendritic Cell Internalization Index [3],EC50 (rhesus macaque TNFα),EC50 (canine TNFα),EC50 [4],Inhibition of soluble human TNFα induced apoptosis IC50 (L929 cells) [5],EC50 [6]
"anti-human TNFα antibody Ab3 (antibody, human IgG1, kappa, V domains shown, Human IgG1; expressed in CHO cells) VH: QVQLVQSGAEVKKPGASVKVSCKASGYTFTGYYMHWVRQAPGQGLEWMGWINPYTGGTKYAQKFQGRVTMTRDTSISTAYMELSRLRSDDTAVYYCARDLYGSSNYGMDVWGQGTTVTVSS VL: not shown",0.15 µg/mL,0.19 µg/mL,20,35.2,0.141 µg/mL,0.24 µg/mL,0.216 µg/mL,,
"anti-human TNFα antibody Ab1 (antibody, human IgG1, kappa, V domains shown, Human IgG1 with engineered cysteines at heavy chain positions 124 and 378 (EU numbering); expressed in CHO cells; also called anti-human TNFα Ab1; unconjugated anti-human TNFα Ab1) VH: QVQLVQSGAEVKKPGASVKVSCKASGYTFTGYYIHWVRQAPGQGLEWMGWINPYTGGTNYAQKFQGRVTMTRDTSISTAYMELSRLRSDDTAVYYCARDLYGSSNYGGDVWGQGTTVTVSS VL: not shown",,0.16 µg/mL,19.4,26.7,0.156 µg/mL,0.22 µg/mL,0.223 µg/mL,0.089 µg/mL,0.28 µg/mL
"anti-human TNFα antibody Ab2 (antibody, human IgG1, kappa, V domains shown, Human IgG1; expressed in CHO cells) VH: QVQLVQSGAEVKKPGASVKVSCKASGYTFTGYYIHWVRQAPGQGLEWMGWINPYTGGTNYAQKFQGRVTMTRDTSISTAYMELSRLRSDDTAVYYCARDLYGSSNYGMDVWGQGTTVTVSS VL: not shown",0.13 µg/mL,0.13 µg/mL,21.9,38.3,0.162 µg/mL,0.24 µg/mL,0.222 µg/mL,,

# The remaining lines, values ahead:
Inhibition of membrane human TNFα-induced apoptosis IC50 (L929 cells) [1],Inhibition of soluble human TNFα induced apoptosis IC50 (L929 cells) [2],Immature Dendritic Cell Internalization Index [3],Mature Dendritic Cell Internalization Index [3],EC50 (rhesus macaque TNFα),EC50 (canine TNFα),EC50 [4],Inhibition of soluble human TNFα induced apoptosis IC50 (L929 cells) [5],EC50 [6],Binder
,,,,0.115 µg/mL,0.162 µg/mL,0.131 µg/mL,,,"anti-human TNFα antibody Ab6 (antibody, human IgG1, kappa, V domains shown, Human IgG1) VH: QVQLVQSGAEVKKPGASVKVSCKASGYTFTGYYIHWVRQAPGQGLEWMGWINPYTGGTNYAQKFQGRVTMTRDTSISTAYMELSRLRSDDTAVYYCARDIYGSSNYGGDVWGQGTTVTVSS VL: not shown"
0.13 µg/mL,0.19 µg/mL,33.6,43.1,0.144 µg/mL,0.231 µg/mL,0.213 µg/mL,,,"anti-human TNFα antibody Ab4 (antibody, human IgG1, kappa, V domains shown, Human IgG1; expressed in CHO cells) VH: QVQLVQSGAEVKKPGASVKVSCKASGYTFTGYYMHWVRQAPGQGLEWMGWINPYTGGTKYAQKFQGRVTMTRDTSISTAYMELSRLRSDDTAVYYCARDLYGSSNYGMDVWGQGTTVTVSS VL: not shown"
0.2 µg/mL,0.22 µg/mL,54.6,52.7,0.161 µg/mL,0.176 µg/mL,0.22 µg/mL,,,"anti-human TNFα antibody Ab5 (antibody, human IgG1, kappa, V domains shown, Human IgG1; expressed in CHO cells) VH: QVQLVQSGAEVKKPGASVKVSCKASGYTFTGYYMHWVRQAPGQGLEWMGWINPYTGGTKYAQKFQGRVTMTRDTSISTAYMELSRLRSDDTAVYYCARDLYGSSNYGMDVWGQGTTVTVSS VL: DIQMTQSPSSLSASVGDRVTITCQASQGIRNYLNWYQQKPGKAPKLLIYDASNLETGVPSRFSGSGSGTDFTFTISSLQPEDIATYYCQQYDKLPLTFGGGTKVEIKR"

# From patent US20240082414A1 (Eli Lilly, published 2024)
